Legend:
ryegrass plants = test: Root biomass analysis of ryegrass transformants; assay type: in vivo; settings: approximately 6 weeks in glasshouse
Experimental: (§1) An equal number (typically 4-10) of tillers were taken from WT and ryegrass plants transformed with Arabidopsis PPD under a constitutive promoter. Tillers were planted into plastic grow bags containing potting mix and pruned to be of equal height. […] The increase in root biomass was quantified by washing the roots under running water then removing the attached above ground portion (leaves and stems) and drying the roots at 65° C. for 48 hr then weighing the dry weights (Table 2).
as §1, with “one of three root promoters.” for “a constitutive promoter.”, “3 and Table 4)” for “2).”

[1] = system: alfalfa (variety USD5) plants; test: Root biomass analysis of alfalfa transformants; assay type: in vivo; settings: constitutive promoter, approximately 6 weeks in growth cabinet
Experimental: Cuttings of approximately equal size were taken from WT and alfalfa (variety USD5) plants transformed with Arabidopsis PPD under a constitutive promoter. Cuttings were planted into plastic grow bags containing potting mix. […] The increase in root biomass was quantified by washing the roots under running water (these were photographed, FIG. 12) then the attached above ground portion (leaves and stems) was removed and the roots dried at 65° C. for 48 hr then weighed Table 5.

DELLA (RGA1) = target: T1, DELLA (RGA1) (Arabidopsis thaliana, UniProt Q9SLH3); test: Yeast two-hybrid (Y2H) interaction with DELLA (RGA1); assay type: binding; settings: PPD1-DBD as bait, selective medium with 15 mM 3AT
T1 construct: expressed in transfected cells; host or cells: yeast strain MaV203
T1 sequence (Q9SLH3 with tags, fused parts or gaps): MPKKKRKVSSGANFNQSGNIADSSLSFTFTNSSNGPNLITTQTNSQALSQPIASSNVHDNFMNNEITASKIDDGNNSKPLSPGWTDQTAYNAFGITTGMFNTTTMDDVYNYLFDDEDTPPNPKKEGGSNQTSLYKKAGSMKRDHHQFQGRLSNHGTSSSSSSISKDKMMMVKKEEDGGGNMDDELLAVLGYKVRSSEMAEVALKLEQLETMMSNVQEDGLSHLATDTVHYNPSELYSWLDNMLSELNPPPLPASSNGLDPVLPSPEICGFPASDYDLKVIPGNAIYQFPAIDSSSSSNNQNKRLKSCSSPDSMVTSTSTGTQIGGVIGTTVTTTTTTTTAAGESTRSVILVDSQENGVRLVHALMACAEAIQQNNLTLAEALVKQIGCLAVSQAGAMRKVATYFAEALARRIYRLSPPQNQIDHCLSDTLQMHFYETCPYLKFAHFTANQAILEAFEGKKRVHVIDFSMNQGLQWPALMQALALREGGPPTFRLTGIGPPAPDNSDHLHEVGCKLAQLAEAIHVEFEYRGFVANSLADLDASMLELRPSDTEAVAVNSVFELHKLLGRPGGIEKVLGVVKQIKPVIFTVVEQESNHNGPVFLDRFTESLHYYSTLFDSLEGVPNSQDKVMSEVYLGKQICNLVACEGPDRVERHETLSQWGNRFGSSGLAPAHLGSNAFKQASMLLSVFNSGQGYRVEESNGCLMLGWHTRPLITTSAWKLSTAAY
Text: The ProQuest two-hybrid system (Invitrogen) was used to analyse interactions between PPD1, and RGA1. Full length coding sequences of PPD1, together with truncation or deletion derivatives of PPD1 (PPD1Δppd, PPD1Δtify, and PPD1Δjas*) (FIG. 4), were Gateway sub-cloned into pDEST32 (N-terminal GAL4DBD) or pDEST22 (N-terminal GAL4AD). When translated these generated the following peptide sequences od SEQ ID NO: 58, 68, 69, 70, 71, 72, which are PPD1-DBD, RGA1, RGA1-AD, PPD1-ppd-DBD, PPD1-tify-DBD, PP1-jas*-DBD respectively.
Combinations of bait and prey constructs were used to co-transform yeast strain MaV203 (Invitrogen), with selection on synthetic dropout (SD) SD/-Leu/-Trp agar plates. Transformed strains were tested for interactions using 10 μl droplets of 1 in 10 and 1 in 100 dilutions on SD/-Leu/-Trp/-His plates with different concentrations of 3-aminotriazol (3-AT) (Sigma). The PPD1-RGA1 interaction was tested with PPD1-DBD used as bait. Transformed yeast was spotted as a ten-fold dilution on control medium (−2) or selective medium (−3) with 15 mM 3AT. Controls were empty vectors, DBD, GAL4 DNA binding domain, AD, GAL4 activation domain (FIG. 4).

NINJA = target: T2, NINJA (Arabidopsis thaliana, UniProt Q9SV55); test: BiFC interaction with NINJA in Nicotiana benthamiana leaves; assay type: cell-based; settings: in planta
T2 construct: expressed in transfected cells; host or cells: Nicotiana benthamiana leaves (Agrobacterium infiltration)
Text: The binary BiFC-Gateway YFP vectors pDEST-VYNE(R)^GW (Venus aa 1-173) and pDEST-VYCE(R)^GW (Venus aa 156-239) with N-terminal fusions, were used to construct the following vectors; pDESTnYFP-BZR1, pDESTnYFP-NINJA, pDESTnYFP-PPD1, pDESTcYFP-BZR1, pDESTcYFP-PPD1, pDESTcYFP-PPD1Δppd, pDESTcYFP-PPD1Δtify and pDESTcYFP-PPD1Δjas*. […] Plasmids for co-immunoprecipitation: A synthesised DNA construct encoding PPD1 with a 3×c-myc C-terminal fusion was sub-cloned into pRSh1 to produce pRSh1-PPD1-3×c-myc, while the NINJA cDNA sequence was sub-cloned into pB7FWG2,0 (Karimi et al 2002, Trends Plant Sci. 7, 193-195) to construct pB7FWG2-NINJA-GFP.
For infiltration Agrobacterium tumefaciens GV3101 strains containing the binary vectors were re-suspended from plates and prepared for transformation as described for the LUC assay. All YFP and expression strains were mixed in ratios of 1:1 (vol/vol) with the addition of strain P19 at 1/10th volume. Five leaf discs were sampled from each infiltrated leaf after 40 h. Two hours prior to sampling for microscopic fluorescence observations leaves were infiltrated with a 1 μg/ml DAPI solution to stain nuclei. YFP fluorescence and DAPI staining was detected using an Olympus Fluoview FV10i confocal laser scanning microscope. Each experiment was repeated twice.

T2 sequence (Q9SV55 with tags, fused parts or gaps): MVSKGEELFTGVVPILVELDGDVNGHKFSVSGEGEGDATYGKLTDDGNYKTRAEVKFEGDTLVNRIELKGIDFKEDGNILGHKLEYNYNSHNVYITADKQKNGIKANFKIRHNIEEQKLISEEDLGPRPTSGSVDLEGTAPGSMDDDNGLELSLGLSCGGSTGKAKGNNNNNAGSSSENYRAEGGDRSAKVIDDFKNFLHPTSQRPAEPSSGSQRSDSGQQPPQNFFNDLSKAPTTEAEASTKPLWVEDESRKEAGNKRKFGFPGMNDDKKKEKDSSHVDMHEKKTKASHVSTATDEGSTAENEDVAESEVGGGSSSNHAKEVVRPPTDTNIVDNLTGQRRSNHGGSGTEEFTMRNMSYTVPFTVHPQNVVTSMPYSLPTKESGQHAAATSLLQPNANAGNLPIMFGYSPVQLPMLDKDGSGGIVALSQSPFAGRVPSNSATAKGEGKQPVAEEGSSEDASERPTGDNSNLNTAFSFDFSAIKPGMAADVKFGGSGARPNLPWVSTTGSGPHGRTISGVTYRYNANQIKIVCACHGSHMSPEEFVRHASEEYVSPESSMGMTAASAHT

B1: Arabidopsis PPD: Arabidopsis thaliana PEAPOD 1 protein, At4g14713, SEQ ID NO: 1 (protein, listed as Arabidopsis thaliana)
chain: MDVGVSPAKSILAKPLKLLTEEDISQLTREDCRKFLKDKGMRRPSWNKSQAIQQVLSLKALYEPGDDSGAGIFRKILVSQPVNPPRVTTTLIEPSNELEACGRVSYPEDNGACHRMDSPRSAEFSGGSGHFVSEKDGHKTTISPRSPAETSELVGQMTIFYSGKVNVYDGIPPEKARSIMHFAANPIDLPENGIFASSRMISKLISKEKMMELPQKGLEKANSSRDSGMEGQANRKVSLQRYREKRKDRKFSKAKKCPGVASSSLEMFLNCQPRMKAAYSQNLGCTGSPLHSQSPESQTKSPNLSVDLNSEGI
In the case of B1, the “root growth beyond the grow bag compared to WT plants” value (ryegrass plants; constitutive promoter) is reported as “increase in root biomass/growth/length/branching”, the “root growth beyond the grow bag compared to WT plants” value (ryegrass plants; one of three root promoters) is reported as “increase in root biomass/growth/length/branching” and the “root growth beyond the grow bag compared to WT plants” value [1] is reported as “increase in root biomass/growth/length/branching”. For the same molecule, the “Y2H binding to DELLA (RGA1)” value (DELLA (RGA1)) was “can directly bind” and the “BiFC interaction with NINJA” value (NINJA) was “interacted with NINJA in plants”.

Reference: patent US10337022B2, “Methods of increasing root biomass in plants” (Agresearch Limited, priority 2014, dated 2019)
